The target in this test is T1, human TIGIT-Fc (human, UniProt Q495A1 22-141, limits assumed).
T1 construct: not shown: Fc; not described
T1 sequence (looked up): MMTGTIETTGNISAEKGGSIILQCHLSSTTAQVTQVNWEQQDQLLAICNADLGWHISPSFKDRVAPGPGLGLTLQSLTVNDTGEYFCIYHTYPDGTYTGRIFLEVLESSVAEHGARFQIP
Nature of the test: CD155 competition ELISA, single point. Also: test concentration or dose not given here. Here is the method:
TIGIT/CD155 inhibition of VHH-Fcs were assessed using an ELISA assay (Table 10B). Briefly, human TIGIT-Fc was coated on a plate & then incubated with VHH-Fcs and human CD155-biotin. Bound CD155-biotin was detected using a streptavidin-HRP conjugate visualized with TMB. Strong inhibitors from the single point screen were titrated to determine EC50 (Table 10C).
On the technique in general: In an ELISA, binding on a coated surface is turned into a signal by an enzyme label.

Where a chain is given by its changes, count along the chain named.

B1: TIGIT-SC70 (Fc fusion)
VHH: EVQLVESGGGLVQPGGSLRLSCAASGRTFSSFAMGWFRQAPGKEREFVAAISGSGEDTYYADSVKGRFTISADNSKNTAYLQMNSLKPEDTAVYYCARWRLDRRQGFYYAMDVWGQGTLVTVSS
notes: VHH-Fc
As to B1, the “OD (450 nm)” value was found to be 0.64 OD.

B2: TIGIT-SC40 (Fc fusion)
VHH: EVQLVESGGGLVQPGGSLRLSCAASGFSFDRWAMGWFRQAPGKERELVARISWNGGSTYYADSVKGRFTISADNSKNTAYLQMNSLKPEDTAVYYCARDDGWLQFMHWGQGTLVTVSS
notes: VHH-Fc
For the molecule B2, the “OD (450 nm)” value was found to be 0.613 OD.

B3: TIGIT-SC32 (Fc fusion)
VHH: EVQLVESGGGLVQPGGSLRLSCAASGFAFGDSWMGWFRQAPGKERELVAAIDWSGGSALYADSVKGRFTISADNSKNTALQMNSLKPEDTAVYYCAKVHSDFRAGWDVWGQGTLVTVSS
notes: VHH-Fc
As for B3, the “OD (450 nm)” value was found to be 0.86 OD.

B4: TIGIT-SC34 (Fc fusion)
VHH: EVQLVESGGGLVQPGGSLRLSCAASGTTFSPYTMGWFRQAPGKEREFVASINSGSRTNYADSVKGRFTISADNSKNTAYLQMNSLKPEDTAVYYCVRSEIGWGQGTLVTVSS
notes: VHH-Fc
As for B4, the “OD (450 nm)” value stood at 0.4 OD.

B5: TIGIT-SC29 (Fc fusion)
VHH: EVQLVESGGGLVQPGGSLRLSCAASGFTLENNMMGWFRQAPGKERELVAAIDWSGGSTIYADSVKGRFTISADNSKNTAYLQMNSLKPEDTAVYYCARGHDYGDYIAYWGQGTLVTVSS
notes: VHH-Fc
In the case of B5, the “OD (450 nm)” value came out at 0.399 OD.

B6: TIGIT-SC30 (Fc fusion)
VHH: EVQLVESGGGLVQPGGSLRLSCAASGRSFSSDWIGWFRQAPGKERELVAAIDWSGGSALYADSVKGRFTISADNSKNTAYLQMNSLKPEDTAVYYCARVNWNNVGWFDPWGQGTLVTVSS
notes: VHH-Fc
For B6, the “OD (450 nm)” value was 0.495 OD.

B7: TIGIT-SC28 (Fc fusion)
VHH: EVQLVESGGGLVQPGGSLRLSCAASGRTFSTDAMGWFRQAPGKEREFVATINWKDGFTYYADSVKGRFTISADNSKNTAYLQMNSLKPEDTAVYYCAGVGHDYGDYLFDYWGQGTLVTVSS
notes: VHH-Fc
Regarding B7, the “OD (450 nm)” value stood at 0.539 OD.

B8: TIGIT-SC33 (Fc fusion)
VHH: EVQLVESGGGLVQPGGSLRLSCAASGFLFDSYAMGWFRQAPGKEREFVAAVSQSGLLTFYADSVKGRFTISADNSKNTAYLQMNSLKPEDTAVYYCASRTSSWWWFDPWGQGTLVTVSS
notes: VHH-Fc
As to B8, the “OD (450 nm)” value was 0.764 OD.

B9: TIGIT-SC56 (Fc fusion)
VHH: EVQLVESGGGLVQPGGSLRLSCAASGNTFSGGFMGWFRQAPGKEREWVASVLRGGYTWYADSVKGRFTISADNSKNTAYLQMNSLKPEDTAVYYCAHSKGYNWFDPWGQGTLVTVSS
notes: VHH-Fc
For the molecule B9, the “OD (450 nm)” value was 0.335 OD.

B10: TIGIT-SC49 (Fc fusion)
VHH: EVQLVESGGGLVQPGGSLRLSCAASGRTFIGYHMGWFRQAPGKEREFVAAISWTGESTLYADSVKGRFTISADNSKNTAYLQMNSLKPEDTAVYYCARDDYGDYRRYFQHWGQGTLVTVSS
notes: VHH-Fc
As to B10, the “OD (450 nm)” value was found to be 0.382 OD.

B11: TIGIT-SC69 (Fc fusion)
VHH: EVQLVESGGGLVQPGGSLRLSCAASGGTFNGRAMGWFRQAPGKEREFVAAISSIGDTYYADSVKGRFTISADNSKNTAYLQMNSLKPEDTAVYYCARWRLDRRQGFYYAMDVWGQGTLVTVSS
notes: VHH-Fc
Take B11: the “OD (450 nm)” value was 0.666 OD.

B12: TIGIT-SC35 (Fc fusion)
VHH: EVQLVESGGGLVQPGGSLRLSCAASGFTLENNMMGWFRQAPGKERELVAAISMSGDDTIYADSVKGRFTISADNSKNTAYLQMNSLKPEDTAVYYCARQGDTVMVSGIDYWGQGTLVTVSS
notes: VHH-Fc
Regarding B12, the “OD (450 nm)” value was 0.42 OD.

B13: TIGIT-SC43 (Fc fusion)
VHH: EVQLVESGGGLVQPGGSLRLSCAASGFTFADYAMGWFRQAPGKEREMVAAIGWNSGTTEYADSVKGRFTISADNSKNTAYLQMNSLKPEDTAVYYCARDTNGWFFDFWGQGTLVTVSS
notes: VHH-Fc
Turning to B13, the “OD (450 nm)” value amounted to 0.64 OD.

B14: TIGIT-SC72 (Fc fusion)
VHH: EVQLVESGGGLVQPGGSLRLSCAASGGLTFSSYAMGWFRQAPGKEREFVAAISWSGGRTYYADSVKGRFTISADNSKNTAYLQMNSLKPEDTAVYYCARWSAKRHSDTMTYYMDVWGQGTLVTVSS
notes: VHH-Fc
For B14, the “OD (450 nm)” value stood at 0.394 OD.

B15: TIGIT-SC71 (Fc fusion)
VHH: EVQLVESGGGLVQPGGSLRLSCAASGSIRSLNAMGWFRQAPGKEREFVAAINWDSARTYYADSVKGRFTISADNSKNTAYLQMNSLKPEDTAVYYCARWSAKRHSDTMTYYMDVWGQGTLVTVSS
notes: VHH-Fc
In the case of B15, the “OD (450 nm)” value stood at 0.868 OD.

B16: TIGIT-SC48 (Fc fusion)
VHH: EVQLVESGGGLVQPGGSLRLSCAASGRTSDIYGMGWFRQAPGKEREAVASIWRSGGNTYYADSVKGRFTISADNSKNTAYLQMNSLKPEDTAVYYCASSTLDVWGQGTLVTVSS
notes: VHH-Fc
For B16, the “OD (450 nm)” value was found to be 0.381 OD.

B17: TIGIT-SC66 (Fc fusion)
VHH: EVQLVESGGGLVQPGGSLRLSCAASGTTFSSAAMGWFRQAPGKEREWVASVLRGGYTWYADSVKGRFTISADNSKNTAYLQMNSLKPEDTAVYYCVTDPRQWLGHDYWGQGTLVTVSS
notes: VHH-Fc
Take B17: the “OD (450 nm)” value was determined as 0.325 OD.

B18: TIGIT-SC27 (Fc fusion)
VHH: EVQLVESGGGLVQPGGSLRLSCAASGLTFSNYVMGWFRQAPGKEREVVAGILSDGRELYADSVKGRFTISADNSKNTAYLQMNSLKPEDTAVYYCARDVFGEGHWGQGTLVTVSS
notes: VHH-Fc
On to B18, for which the “OD (450 nm)” value stood at 0.505 OD.

B19: TIGIT-SC173 (Fc fusion)
VHH: EVQLVESGGGLVQPGGSLRLSCAASGFTFSPSWMGWFRQAPGKEREWVASVLRGGYTWYADSVKGRFTISADNSKNTAYLQMNSLKPEDTAVYYCATERRLGVWGQGTLVTVSS
notes: VHH-Fc
On to B19, for which the “OD (450 nm)” value stood at 0.578 OD.

B20: TIGIT-SC171 (Fc fusion)
VHH: B19 VHH with S30D, P31R
notes: VHH-Fc
Turning to B20, the “OD (450 nm)” value was determined as 0.571 OD.

B21: TIGIT-SC203 (Fc fusion)
VHH: B19 VHH with T97R, E98D, R100G, L101G, G102S, V103D
notes: VHH-Fc
As to B21, the “OD (450 nm)” value amounted to 0.521 OD.

B22: TIGIT-SC201 (Fc fusion)
VHH: B19 VHH with A96T, T97R, E98D, R99G, R100G, L101F, G102D, V103P
notes: VHH-Fc
Turning to B22, the “OD (450 nm)” value was found to be 0.509 OD.

B23: TIGIT-SC195 (Fc fusion)
VHH: B19 VHH with T28A, P31S, S32D, T97R, E98G, R99E, R100G, L101F, G102D, V103Y
In the case of B23, the “OD (450 nm)” value worked out at 0.426 OD.

B24: TIGIT-SC42 (Fc fusion)
VHH: EVQLVESGGGLVQPGGSLRLSCAASGNTFSGGFMGWFRQAPGKEREWVATVLRGGYTWYADSVKGRFTISADNSKNTAYLQMNSLKPEDTAVYYCASGGFLASWGQGTLVTVSS
notes: VHH-Fc
Consider B24, for which the “OD (450 nm)” value was 0.341 OD.

B25: TIGIT-SC191 (Fc fusion)
VHH: B19 VHH with T28V, P31S, S32D, T97R, E98G, R99D, R100S, L101M, G102D
notes: VHH-Fc
For B25, the “OD (450 nm)” value was 0.49 OD.

B26: TIGIT-SC198 (Fc fusion)
VHH: B19 VHH with W47Y, T97S, R99G, R100D, L101P, G102D, V103Y
notes: VHH-Fc
In the case of B26, the “OD (450 nm)” value amounted to 0.514 OD.

B27: TIGIT-SC25 (Fc fusion)
VHH: B24 VHH with T50S, A96T, S97T, G98V, F100Y, L101G, A102D, S103Y
notes: VHH-Fc
Consider B27, for which the “OD (450 nm)” value turned out to be 0.469 OD.

B28: TIGIT-SC47 (Fc fusion)
VHH: EVQLVESGGGLVQPGGSLRLSCAASGRALNMYVMGWFRQAPGKERELVAAIDWSGGSALYADSVKGRFTISADNSKNTAYLQMNSLKPEDTAVYYCASGDGYSMDYFDPWGQGTLVTVSS
notes: VHH-Fc
Regarding B28, the “OD (450 nm)” value is 0.69 OD.

B29: TIGIT-SC52 (Fc fusion)
VHH: EVQLVESGGGLVQPGGSLRLSCAASGFLFDSYAMGWFRQAPGKEREFVAAISTGGGWRTYADSVKGRFTISADNSKNTAYLQMNSLKPEDTAVYYCAKRGNDNWYFDLWGQGTLVTVSS
notes: VHH-Fc
As to B29, the “OD (450 nm)” value worked out at 0.351 OD.

B30: TIGIT-SC39 (Fc fusion)
VHH: EVQLVESGGGLVQPGGSLRLSCAASGRTVSSHAMGWFRQAPGKEREFVAAITSSGSTYYADSVKGRFTISADNSKNTAYLQMNSLKPEDTAVYYCASSYSSSSGLGDIWGQGTLVTVSS
notes: VHH-Fc
Regarding B30, the “OD (450 nm)” value is 0.652 OD.

B31: TIGIT-SC22 (Fc fusion)
VHH: EVQLVESGGGLVQPGGSLRLSCAASGFTLENNMMGWFRQAPGKEREMVAAISWSGGSALYADSVKGRFTISADNSKNTAYLQMNSLKPEDTAVYYCARGDGYSYGNFDYWGQGTLVTVSS
notes: VHH-Fc
With B31, the “OD (450 nm)” value stood at 0.552 OD.

B32: TIGIT-SC44 (Fc fusion)
VHH: EVQLVESGGGLVQPGGSLRLSCAASGSIFGLGAMGWFRQAPGKERELVAITWGGSTTLYADSVKGRFTISADNSKNTAYLQMNSLKPEDTAVYYCATDQGQWLFDFWGQGTLVTVSS
notes: VHH-Fc
Take B32: the “OD (450 nm)” value stood at 0.359 OD.

B33: TIGIT-SC55 (Fc fusion)
VHH: EVQLVESGGGLVQPGGSLRLSCAASGFPFDDYAMGWFRQAPGKERELVAVIRWTGMNTHYADSVKGRFTISADNSKNTAYLQMNSLKPEDTAVYYCAKGIAVAGAFDYWGQGTLVTVSS
notes: VHH-Fc
Turning to B33, the “OD (450 nm)” value was 0.364 OD.

B34: TIGIT-SC45 (Fc fusion)
VHH: EVQLVESGGGLVQPGGSLRLSCAASGGTFNAMGWFRQAPGKEREWVASVLRGGYTWYADSVKGRFTISADNSKNTAYLQMNSLKPEDTAVYYCAKDGGSSGTYQNWWGQGTLVTVSS
notes: VHH-Fc
On to B34, for which the “OD (450 nm)” value was 0.359 OD.

These data come from patent US20260184782A1 (TWIST BIOSCIENCE, published 2026).
